According to patent publication US8628767B2, “Purine nucleoside phosphorylase as enzymatic activator of nucleoside prodrugs” (priority 2008, dated 2014):

What was measured:
[1] = Cleavage of F-araA by PNPs of various origins (HPLC); type: biochemical
tumors = assay: In vivo efficacy experiments, tm-PNP versus M65V
[2] = Cleavage of MeP-dR by PNPs of various origins (HPLC); type: biochemical; conditions: 100 μM MeP-dR, enzymes of various purities

B1: tm-PNP: tailed mutant E. coli PNP, 30 amino acid tail in place of the terminal glutamic acid (SEQ ID NO: 8) (protein, listed as Trichomonas vaginalis)
chain: MATPHINAEMGDFADVVLMPGDPLRAKYIAETFLEDAREVNNVRGMLGFTGTYKGRKISVMGHGMGIPSCSIYTKELITDFGVKKIIRVGSCGAVLPHVKLRDVVIGMGACTDSKVNRIRFKDHDFAAIADFDMVRNAVDAAKALGIDARVGNLFSADLFYSPDGEMFDVMEKYGILGVEMEAAGIYGVAAEFGAKALTICTVSDHIRTHEQTTAAERQTTFNDMIKIALESVLLGDKGKRPRGSSRVDLQACKLGIFVKEPYFCGVT
With B1 the MeP-dR/F-araA cleavage ratio [1] was 198, the “F-araA rate of cleavage” value ([1]; 100 μM F-araA, enzymes of various purities) was 4.8 nmol/mg/h and the “selectivity of cleavage of F-araA relative to wild-type E. coli PNP” value ([1]; from MeP-dR/F-araA ratios 198 vs 422) was 2.3 fold. For the same molecule, the “antitumoral activity relative to M65V” value (tumors) was “considerably greater antitumoral activity” and the “MeP-dR rate of cleavage” value [2] was 948 nmol/mg/h.
